{"source": "patent US10138493", "experiment_in_all_cases": "cell_activity", "key": {"synTF ZF 9-2": {"test_system": "synTF ZF 9-2", "settings": "1x reporter, HEK293FT; KRAB and HP1 fusions also repress"}, "synTF ZF 8-1": {"test_system": "synTF ZF 8-1", "settings": "1x reporter, HEK293FT; KRAB and HP1 fusions also repress"}, "synTF ZF 3-5": {"test_system": "synTF ZF 3-5", "settings": "1x reporter, HEK293FT; KRAB and HP1 fusions also repress"}, "synTF ZF 7-3": {"test_system": "synTF ZF 7-3", "settings": "1x reporter, HEK293FT; KRAB and HP1 fusions also repress"}, "synTF ZF 1-3": {"test_system": "synTF ZF 1-3", "settings": "1x reporter, HEK293FT; KRAB and HP1 fusions also repress (p284, p286)"}, "synTF ZF 4-8": {"test_system": "synTF ZF 4-8", "settings": "1x reporter, HEK293FT; KRAB and HP1 fusions also repress"}, "synTF ZF 6-4": {"test_system": "synTF ZF 6-4", "settings": "1x reporter, HEK293FT; KRAB and HP1 fusions also repress"}, "synTF ZF 2-6": {"test_system": "synTF ZF 2-6", "settings": "1x reporter, HEK293FT; KRAB and HP1 fusions also repress"}, "synTF ZF 5-7": {"test_system": "synTF ZF 5-7", "settings": "1x reporter, HEK293FT; KRAB and HP1 fusions also repress"}}, "data": [{"sequence": "AGACGCAGTATAGGACGACG (double strand) [Target 9]", "values": [{"measurement": "activity (fold GFP activation)", "setting": "synTF ZF 9-2", "value": "> 10"}]}, {"sequence": "AGACGCAGTATAGGTCGAAC (double strand) [Target 8]", "values": [{"measurement": "activity (fold GFP activation)", "setting": "synTF ZF 8-1", "value": "> 10"}]}, {"sequence": "AGACGTCGAAGTAGCCGTAG (double strand) [Target 3]", "values": [{"measurement": "activity (fold GFP activation)", "setting": "synTF ZF 3-5", "value": "> 10"}]}, {"sequence": "CGACGAGGTCGCATAAGTAG (double strand) [Target 7]", "values": [{"measurement": "activity (fold GFP activation)", "setting": "synTF ZF 7-3", "value": "> 10"}]}, {"sequence": "CGTCGAAGTCGAAGTCGACC (double strand) [Target 1]", "values": [{"measurement": "activity (fold GFP activation)", "setting": "synTF ZF 1-3", "value": "> 10"}]}, {"sequence": "GGACGACGCCGATGTAGAAG (double strand) [Target 4]", "values": [{"measurement": "activity (fold GFP activation)", "setting": "synTF ZF 4-8", "value": "> 10"}]}, {"sequence": "GGACGACGCGGTCTAAGAAG (double strand) [Target 6]", "values": [{"measurement": "activity (fold GFP activation)", "setting": "synTF ZF 6-4", "value": "> 10"}]}, {"sequence": "GGACGACGTTACGGACGTAC (double strand) [Target 2]", "values": [{"measurement": "activity (fold GFP activation)", "setting": "synTF ZF 2-6", "value": "> 10"}]}, {"sequence": "TGAAGCAGTCGACGCCGAAG (double strand) [Target 5]", "values": [{"measurement": "activity (fold GFP activation)", "setting": "synTF ZF 5-7", "value": "> 10"}]}]}
